Assay results published in patent US20220362404A1 (MACQUARIE UNIVERSITY, published 2022).

T1: Flag-tagged cyclin F (Homo sapiens (Human), UniProt P41002 1-786)
T1 construct: Expressed in HEK293 cells and immunoprecipitated with anti-Flag; In the ubiquitylation assay it stood with co-immunoprecipitated Skp1, Cul1 and Rbx1; also called cyclin F-flag; Flag-cyclin F; not shown: C-terminal Flag tag
T1 sequence: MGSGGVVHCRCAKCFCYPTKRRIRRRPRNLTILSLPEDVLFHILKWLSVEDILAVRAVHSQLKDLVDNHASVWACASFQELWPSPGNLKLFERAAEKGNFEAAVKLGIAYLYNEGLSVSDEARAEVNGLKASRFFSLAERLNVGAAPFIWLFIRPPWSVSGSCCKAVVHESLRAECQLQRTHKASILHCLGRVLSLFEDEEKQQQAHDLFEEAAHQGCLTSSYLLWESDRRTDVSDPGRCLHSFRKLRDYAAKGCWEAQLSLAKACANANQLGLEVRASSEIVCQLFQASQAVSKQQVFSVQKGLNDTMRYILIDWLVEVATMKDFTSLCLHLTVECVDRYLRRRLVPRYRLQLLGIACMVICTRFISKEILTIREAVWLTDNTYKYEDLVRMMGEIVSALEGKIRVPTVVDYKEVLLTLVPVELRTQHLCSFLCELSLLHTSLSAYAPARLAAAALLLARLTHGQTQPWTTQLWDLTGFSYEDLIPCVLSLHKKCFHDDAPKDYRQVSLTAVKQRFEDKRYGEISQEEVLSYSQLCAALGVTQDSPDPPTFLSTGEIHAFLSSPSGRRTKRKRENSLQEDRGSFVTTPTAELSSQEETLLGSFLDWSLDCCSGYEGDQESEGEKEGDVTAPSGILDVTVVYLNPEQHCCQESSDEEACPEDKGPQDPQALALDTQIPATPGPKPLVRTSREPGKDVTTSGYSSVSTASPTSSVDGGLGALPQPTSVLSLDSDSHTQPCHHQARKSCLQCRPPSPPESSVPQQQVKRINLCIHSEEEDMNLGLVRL


Key:
[1] = biological target: T2, recombinant His-tagged TDP-43 (full length) (UniProt Q13148 1-414); test: microscale thermophoresis, labelled His-TDP-43, GST-cyclin domain titrated
T2 construct: In MST it was labelled with RED-tris-NTA dye on the His tag; also called His-TDP-43; recombinant TDP-43; not shown: His tag, printed as His-TDP-43
Protocol: Recombinant His-tagged TDP-43 (a gift from Professor Julie Atkin's laboratory) was diluted to 200 nM in PBS-T buffer (137 mM NaCl, 2.5 mM KCl, 10 mM Na2HPO4, 2 mM KH2PO4, pH 7.4; 0.05% (v/v) Tween-20). The RED-tris-NTA dye was diluted in PBS-T to 100 nM. For labelling, the recombinant protein and diluted dye were mixed in a 1:1 volume ratio and incubated for 30 minutes at room temperature. Recombinant cyclin F-GST was also diluted in PBS-T buffer prior to analysis. Concentrations of cyclin F-GST (cyclin box) ranged from 0-22 μM. Before MST measurements were carried out, samples were centrifuged for 10 minutes at 4° C. at 14,000×g. All MST measurements were performed on a NanoTemper Monolith™NT.115 instrument using standard treated capillaries at room temperature. Final dye concentration of 25 nM yielded the fluorescence intensity of around 300 counts at a LED power of 50%. Accordingly, the MST power range was between 40-60% intensity with a laser-on time of 30 s and a laser-off time of 5 s. All data were analysed by MO Affinity Analysis Software.

Flag-tagged cyclin F = biological target: T1, Flag-tagged cyclin F; test: co-immunoprecipitation with anti-myc from HEK293 lysate, immunoblot
Protocol: A. HEK293 cells were transfected with cyclin F-flag and TDP-43-HA. After 24 hours, cells were lysed and anti-flag antibodies or an IgG control were used to immunoprecipitate Flag-cyclin F. Eluates were analyzed by immunoblotting using antibodies recognizing cyclin F and TDP-43. B. HEK293 cells were transfected with cyclin F-flag and TDP-43-HA. At 24 hours post-transfection, cells were lysed and Flag-cyclin F was immunoprecipitated using antibodies recognizing the Flag tag. Eluates were analyzed by immunoblotting using antibodies recognizing cyclin F and phospho-TDP-43 (S409/410). C. Schematic showing the position of the RxL>AxA mutation within TDP-43. D. Cells were transfected with cyclin F and TDP-43(WT) or TDP-43(RxL>AxA). Cyclin F was immunoprecipitated from cell lysates using antibodies recognizing the Flag tag. Eluates were analyzed using anti-cyclin F and anti-TDP-43. E. Schematic showing the TDP-43 fragments used for immunoprecipitations. […] Eluates were analyzed by immunoblotting using antibodies recognizing cyclin F and myc.
In order to determine whether cyclin F interacts with TDP-43 through the typical RxL motif present in all known cyclin F substrates, constructs expressing wild-type TDP-43 or variant TDP-43 (RxL>AxA) were transfected into HEK293 cells (FIG. 1C). After 24 hours, the cells were lysed and Flag-cyclin F was immunoprecipitated and analyzed for TDP-43 by immunoblotting. […]

| binding result [1] | binding result (Flag-tagged cyclin F) | Binder |
| --- | --- | --- |
| binds | – | GST-cyclin domain of cyclin F (aa 302-497) (other, Made in E. coli from pGEX5; also called cyclin box of cyclin F; cyclin F-GST (cyclin box); not shown: glutathione S-transferase (GST) tag of the pGEX5 vector) QKGLNDTMRYILIDWLVEVATMKDFTSLCLHLTVECVDRYLRRRLVPRYRLQLLGIACMVICTRFISKEILTIREAVWLTDNTYKYEDLVRMMGEIVSALEGKIRVPTVVDYKEVLLTLVPVELRTQHLCSFLCELSLLHTSLSAYAPARLAAAALLLARLTHGQTQPWTTQLWDLTGFSYEDLIPCVLSLHKKCF |
| – | no binding | Myc-tagged C-terminal fragment of TDP-43 (167-414) (other, UniProt Q13148 167-414, looked up, Over-expressed in HEK293 cells with Flag-cyclin F; also called myc-TDP-43; not shown: myc tag, printed as myc-TDP-43) MIDGRWCDCKLPNSKQSQDEPLRSRKVFVGRCTEDMTEDELREFFSQYGDVMDVFIPKPFRAFAFVTFADDQIAQSLCGEDLIIKGISVHISNAEPKHNSNRQLERSGRFGGNPGGFGNQGGFGNSRGGGAGLGNNQGSNMGGGMNFGAFSINPAMMAAAQAALQSSWGMMGMLASQQNQSGPSGNNQNQGNMQREPNQAFGSGNNSYSGSNSGAAIGWGSASNAGSGSGFNGGFGSSMDSKSSGWGM |
